We go through 4 molecules from US20040126882, “Regulatable, catalytically active nucleic acids” (published 2004).

For series [1], the target named is T1, hen egg white lysozyme (UniProt P00698 P00698:19-147). In words: competition; no appreciable inhibition of lys11-2 activation. The procedure:
(§1) Ligation assays. In one example, 10 pmol of [³²P]-body-labeled ribozyme and 20 pmol effector oligonucleotide were denatured for 3 min at 70° C. in 5 μl water. The RNA mixture was cooled to room temperature followed by addition of ligation buffer and target protein (20 pmol unless otherwise stated, or water in place of ligand, in the case of […]). After a 5 min equilibration at room temperature, reactions were initiated by the addition of 20 pmol substrate oligonucleotide (S28A) in a final volume of 15 μl. Reactions were incubated at 25° C., and 4 μl aliquots were removed at three appropriate time points and terminated by the addition of 18 μl of SDS stop mix (100 mM EDTA, 80% formamide, 0.8% SDS, 0.05% bromophenol blue, 0.05% xylene cyanol). Samples were denatured for 3 min at 70° C., ligated and unligated species were separated from one another on 8% polyacrylamide gels containing 0.1% SDS, and the amounts of products formed were determined using a Phosphorimager (Molecular Dynamics, Sunnyvale, Calif.). Assays performed over a broad range of protein concentrations (e.g, FIG. 21) differed from typical reaction conditions in that only 1 pmol ribozyme was present in a 10 μl final volume.
(§2) Competition assays. Ligation assays were performed as described above, using 10 pmol of [³²P]-body-labeled ribozyme (cyt7-2 or lys11-2; […]) and 20 pmol effector oligonucleotide (2 μM). […]

The target in series [2] is T2, Cyt18 (mitochondrial tyrosyl-tRNA synthetase, CYT-18) (Neurospora crassa, UniProt P12063 P12063:33-669).
T2 sequence: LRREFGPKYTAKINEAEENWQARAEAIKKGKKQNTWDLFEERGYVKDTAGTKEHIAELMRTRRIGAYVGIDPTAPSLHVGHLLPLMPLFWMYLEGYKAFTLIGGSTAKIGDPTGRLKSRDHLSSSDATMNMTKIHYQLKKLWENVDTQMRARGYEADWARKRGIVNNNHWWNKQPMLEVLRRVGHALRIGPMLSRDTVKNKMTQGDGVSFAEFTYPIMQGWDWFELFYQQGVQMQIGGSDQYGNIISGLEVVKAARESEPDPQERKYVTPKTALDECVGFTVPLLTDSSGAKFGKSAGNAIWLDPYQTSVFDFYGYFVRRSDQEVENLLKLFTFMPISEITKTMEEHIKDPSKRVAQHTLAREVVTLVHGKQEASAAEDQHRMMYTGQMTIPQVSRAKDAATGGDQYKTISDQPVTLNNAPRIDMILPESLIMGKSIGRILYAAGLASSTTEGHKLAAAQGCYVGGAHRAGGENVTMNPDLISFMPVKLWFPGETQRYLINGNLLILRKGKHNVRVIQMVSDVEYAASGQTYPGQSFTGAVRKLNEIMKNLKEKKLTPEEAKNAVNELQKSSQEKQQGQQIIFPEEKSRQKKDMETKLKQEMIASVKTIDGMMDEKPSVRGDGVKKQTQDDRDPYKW
In words: competition; greatest reduction of Cyt18 activation of cyt7-2; 3 uM competitor. The note with it: chain copies: 2. The protocol: as §1, §2

The target in series [3] is T1, hen egg white lysozyme. In words: competition. The procedure: as §1
(§3) Competition assays. Ligation assays were performed as described above, using 10 pmol of [³²P]-body-labeled ribozyme (cyt7-2 or lys11-2; […]) and 20 pmol effector oligonucleotide (2 μM). The denatured and annealed RNA mixture was combined with ligation buffer, 20 pmol protein (Cyt18, lysozyme, or water in the case of (−) protein samples; 2 μM), and 30 pmol of denatured and annealed competitor RNA (3 μM).

The target of series [4] is T2, Cyt18 (mitochondrial tyrosyl-tRNA …). In words: competition. To be noted: chain copies: 2. The procedure: as §1, §3

B1: ND1 group I intron (ssRNA)
RNA: GACUAAUAUGAUUUGGUCUCAUUAAAGAUCACAAAUUGCUGGAAACUCCUUUGAGGCUAGGACAAUCAGCAAGGAAGUUAACAUAUAAUGUUAAAACCUUCAGAGACUAGACGUGAUCAUUUAAUAGACGCCUUGCGGCUCUUAUUAGAUAAGGUAUAGUCCAAAUUUGUAUGUAAAUACAAAAUGAUAAAAAAAAAUGAAAUCAUAUGGG
Turning to B1, the binding result with hen egg white lysozyme [1] is listed as “no binding”; in series [2] it was “binds”.

B2: c1 (ssRNA)
RNA: GGGAAUGGAUCCACAUCUACGAAUUCAUCAGGGCUAAAGAGUGCAGAGUUACUUAGUUCACUCCAGACUUGACGAAGCUU
As to B2, the binding result with hen egg white lysozyme [3] was “binds”.

B3: M12 (ssRNA)
RNA: GGGAAUGGAUCCACAUCUACGAAUUCGAGUCGAGAACUGGUGCGAAUGCGAGUAAGUUCACUCCAGACUUGACGAAGCUU
Consider B3, for which the binding result with hen egg white lysozyme [3] is “no binding”; in series [4], “binds”.

B4: B17 (ssRNA)
RNA: GGGAAUGGAUCCACAUCUACGAAUUCGUAGCGUAGAGUAUGAGAGAGCCAAGGUCAGGUUCACUCCAGACUUGACGAAGCUU
For B4, the binding result with hen egg white lysozyme [3] is “no binding”.
